# Data taken from US8383581B2, “Short-chain peptides as parathyroid hormone (PTH) receptor agonist” (Cadila Healthcare Limited, priority 2009, dated 2013).
# Where no end group is shown, it is not given here. [ ]: non-standard residue; d: D form. Bip(2'-Et-4'-OMe) = CCc1cc(OC)ccc1-c1ccc(C[C@H](N)C(=O)O)cc1; Arg(NO2) = N=C(NCCC[C@H](N)C(=O)O)N[N+](=O)[O-]; αMePhe(2,6-F2) = C[C@](N)(Cc1c(F)cccc1F)C(=O)O; αMePhe(2-F) = C[C@](N)(Cc1ccccc1F)C(=O)O; hhPhe = N[C@@H](CCCc1ccccc1)C(=O)O; hArg = N=C(N)NCCCC[C@H](N)C(=O)O; hCit = NC(=O)NCCCC[C@H](N)C(=O)O; αMeF = C[C@](N)(Cc1ccccc1)C(=O)O; Cit = NC(=O)NCCC[C@H](N)C(=O)O; Ac6c = NC1(C(=O)O)CCCCC1; Nle = CCCC[C@H](N)C(=O)O; Orn = NCCC[C@H](N)C(=O)O; Ac5c = NC1(C(=O)O)CCCC1; Ac3c = NC1(C(=O)O)CC1; Aib = CC(C)(N)C(=O)O
# T1: rat PTH-1R (rat PTHR endogenously expressed on UMR-106 rat osteosarcoma cells) (rat, UniProt P25961 27-591)
# T1 sequence (looked up): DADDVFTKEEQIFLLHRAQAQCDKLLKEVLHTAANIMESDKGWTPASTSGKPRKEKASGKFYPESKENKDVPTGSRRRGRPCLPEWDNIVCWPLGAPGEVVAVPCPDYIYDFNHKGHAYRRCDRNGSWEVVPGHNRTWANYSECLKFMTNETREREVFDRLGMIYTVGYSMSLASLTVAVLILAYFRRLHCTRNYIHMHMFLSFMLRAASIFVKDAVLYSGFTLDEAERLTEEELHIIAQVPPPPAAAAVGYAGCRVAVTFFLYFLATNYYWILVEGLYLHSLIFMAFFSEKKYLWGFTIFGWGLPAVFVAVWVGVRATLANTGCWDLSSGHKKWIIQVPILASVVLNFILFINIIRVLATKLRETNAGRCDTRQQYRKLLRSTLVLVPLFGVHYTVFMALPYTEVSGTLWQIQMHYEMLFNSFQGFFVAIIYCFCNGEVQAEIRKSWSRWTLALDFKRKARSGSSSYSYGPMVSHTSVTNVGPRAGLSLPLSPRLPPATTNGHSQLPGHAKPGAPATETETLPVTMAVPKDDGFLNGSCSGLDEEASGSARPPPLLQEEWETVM
# Biological target: T1, rat PTH-1R (rat PTHR endogenously …)
# Assay: cell-based or functional assay
binder,measurement,value
"[Ac5c]V[Aib]EIQ[αMePhe(2,6-F2)][Nle]HQ[Orn][Aib][αMePhe(2,6-F2)][Bip(2'-Et-4'-OMe)][hhPhe] [Seq. ID. 841]","cAMP released with respect to control, 1 nM peptide, UMR-106 cells",32 percent of control
same,"cAMP released with respect to control, 10 nM peptide, UMR-106 cells",74 percent of control
same,"cAMP released with respect to control, 100 nM peptide, UMR-106 cells",100 percent of control
"[Aib]V[Aib]EIQ[αMePhe(2,6-F2)][Nle]HQ[hCit]A[Cit][Bip(2'-Et-4'-OMe)][hhPhe] [Seq. ID. 860]","cAMP released with respect to control, 1 nM peptide, UMR-106 cells",22 percent of control
same,"cAMP released with respect to control, 10 nM peptide, UMR-106 cells",50 percent of control
same,"cAMP released with respect to control, 100 nM peptide, UMR-106 cells",70 percent of control
"[Aib]V[Aib]EIQ[αMePhe(2,6-F2)][Nle]HQ[hArg][Aib][Cit][Bip(2'-Et-4'-OMe)][hhPhe] [Seq. ID. 820]","cAMP released with respect to control, 1 nM peptide, UMR-106 cells",14 percent of control
same,"cAMP released with respect to control, 10 nM peptide, UMR-106 cells",48 percent of control
same,"cAMP released with respect to control, 100 nM peptide, UMR-106 cells",66 percent of control
[Aib]V[Ac5c]EIQ[αMePhe(2-F)][Nle]HQ[hArg]AK[αMeF] [Seq. ID. 30],"cAMP released with respect to control, 1 nM peptide, UMR-106 cells",19 percent of control
same,"cAMP released with respect to control, 10 nM peptide, UMR-106 cells",51 percent of control
same,"cAMP released with respect to control, 100 nM peptide, UMR-106 cells",80 percent of control
[Aib]V[Ac6c]EIQL[Nle]HQ[hArg][Aib]K[αMeF] [Seq. ID. 23],"cAMP released with respect to control, 1 nM peptide, UMR-106 cells",12 percent of control
same,"cAMP released with respect to control, 10 nM peptide, UMR-106 cells",41 percent of control
same,"cAMP released with respect to control, 100 nM peptide, UMR-106 cells",69 percent of control
"[Ac5c]V[Aib]EIQ[αMePhe(2,6-F2)][Nle]HQ[hArg]A[Cit][Bip(2'-Et-4'-OMe)][hhPhe] [Seq. ID. 813]","cAMP released with respect to control, 1 nM peptide, UMR-106 cells",82 percent of control
same,"cAMP released with respect to control, 10 nM peptide, UMR-106 cells",109 percent of control
same,"cAMP released with respect to control, 100 nM peptide, UMR-106 cells",110 percent of control
[Ac5c]V[Aib]EIQL[Nle]HQ[hArg]A[Cit][Bip(2'-Et-4'-OMe)][hhPhe] [Seq. ID. 733],"cAMP released with respect to control, 1 nM peptide, UMR-106 cells",36 percent of control
same,"cAMP released with respect to control, 10 nM peptide, UMR-106 cells",98 percent of control
same,"cAMP released with respect to control, 100 nM peptide, UMR-106 cells",110 percent of control
[Ac5c]V[Aib]EIQ[αMePhe(2-F)][Nle]HQ[Aib][Aib][Cit][αMePhe(2-F)] [Seq. ID. 540],"cAMP released with respect to control, 1 nM peptide, UMR-106 cells",16 percent of control
same,"cAMP released with respect to control, 10 nM peptide, UMR-106 cells",57 percent of control
same,"cAMP released with respect to control, 100 nM peptide, UMR-106 cells",75 percent of control
"[Ac3c]V[Aib]EIQ[αMePhe(2-F)][Nle]HQ[hArg]A[Arg(NO2)][αMePhe(2,6-F2)][hhPhe] [Seq. ID. 712]","cAMP released with respect to control, 1 nM peptide, UMR-106 cells",15 percent of control
same,"cAMP released with respect to control, 10 nM peptide, UMR-106 cells",54 percent of control
same,"cAMP released with respect to control, 100 nM peptide, UMR-106 cells",69 percent of control
[Ac5c]V[Aib]EIQLMHQ[hArg][Aib]K[αMeF] [Seq. ID. 20],"cAMP released with respect to control, 1 nM peptide, UMR-106 cells",79 percent of control
same,"cAMP released with respect to control, 10 nM peptide, UMR-106 cells",111 percent of control
same,"cAMP released with respect to control, 100 nM peptide, UMR-106 cells",121 percent of control
"[Aib]V[Aib]EIQ[αMePhe(2,6-F2)][Nle]HQ[αMePhe(2,6-F2)]A[Aib][αMePhe(2,6-F2)] [Seq. ID. 501]","cAMP released with respect to control, 1 nM peptide, UMR-106 cells",28 percent of control
same,"cAMP released with respect to control, 10 nM peptide, UMR-106 cells",71 percent of control
same,"cAMP released with respect to control, 100 nM peptide, UMR-106 cells",87 percent of control
"[Aib]V[Aib]EIQ[αMePhe(2-F)][Nle]HQ[αMePhe(2,6-F2)]A[Arg(NO2)][αMePhe(2-F)] [Seq. ID. 521]","cAMP released with respect to control, 1 nM peptide, UMR-106 cells",21 percent of control
same,"cAMP released with respect to control, 10 nM peptide, UMR-106 cells",51 percent of control
same,"cAMP released with respect to control, 100 nM peptide, UMR-106 cells",69 percent of control
[Aib]V[Aib]EIQ[αMePhe(2-F)][Nle]HQ[Aib]A[Aib][αMePhe(2-F)] [Seq. ID. 553],"cAMP released with respect to control, 1 nM peptide, UMR-106 cells",38 percent of control
same,"cAMP released with respect to control, 10 nM peptide, UMR-106 cells",98 percent of control
same,"cAMP released with respect to control, 100 nM peptide, UMR-106 cells",116 percent of control
[Ac5c]V[Aib]EIQL[Nle]HQ[hCit]A[Cit][Bip(2'-Et-4'-OMe)][hhPhe] [Seq. ID. 781],"cAMP released with respect to control, 1 nM peptide, UMR-106 cells",16 percent of control
same,"cAMP released with respect to control, 10 nM peptide, UMR-106 cells",57 percent of control
same,"cAMP released with respect to control, 100 nM peptide, UMR-106 cells",75 percent of control
